Measured values as given in PMC8823246 (Journal for Immunotherapy of Cancer, 2022).

Molecular target: T1, recombinant human VISTA-Fc protein (human, UniProt Q9H7M9 33-194)
T1 sequence (looked up): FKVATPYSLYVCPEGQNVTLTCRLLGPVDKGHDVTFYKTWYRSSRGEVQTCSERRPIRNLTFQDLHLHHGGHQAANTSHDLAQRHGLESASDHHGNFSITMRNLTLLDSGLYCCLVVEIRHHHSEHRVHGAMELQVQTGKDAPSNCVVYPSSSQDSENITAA
Assay: ELISA

B1: recombinant human VSIG3-Fc (Fc fusion, UniProt Q5DX21 23-241, looked up)
chain: LEVSESPGSIQVARGQPAVLPCTFTTSAALINLNVIWMVTPLSNANQPEQVILYQGGQMFDGAPRFHGRVGFTGTMPATNVSIFINNTQLSDTGTYQCLVNNLPDIGGRNIGVTGLTVLVPPSAPHCQIQGSQDIGSDVILLCSSEEGIPRPTYLWEKLDNTLKLPPTATQDQVQGTVTIRNISALSSGLYQCVASNAIGTSTCLLDLQVISPQPRNIG
modifications: biotin (biotinylated using Invitrogen kit #21455) in the inhibition assay
Work on B1 yielded an EC50 of 24 nM.
